The record followed here is article PMC10480278.

Values joined by “and” are separate entries in the source; they are usually repeats but may differ in a detail not shown here. Equal entries are not always repeated.

For one series, the target named is Asp186 (UniProt position 186, DGFRFDAAKHM). The series can be described thus: kinetics. The conditions noted are these: 70 °C; mixture of citrate, phosphate and glycine buffers (100 mM each); Enzyme turning over starch and maltose (activity assay); 0.5 U/mL purified enzyme.
A further series concerns the target Glu216 (UniProt position 216, GIFLAEIWAEA). The series can be described thus: kinetics. The settings on record: 70 °C; mixture of citrate, phosphate and glycine buffers (100 mM each); Enzyme turning over starch and maltose (activity assay); 0.5 U/mL purified enzyme.

Regarding “4-alpha-glucanotransferase (TmGTase), wild type (Thermotoga maritima)”, the pKa (commonly the pH at which an ionisable group is half protonated) came out at 4.4 ± 0.1 with Asp186 and 8.9 ± 0.1 with Glu216.
Consider “4-alpha-glucanotransferase (TmGTase) truncated loop variant (Thermotoga maritima; del120-124;del128-131)”, for which the pKa with Asp186 is 4.6 ± 0.1; in the series with Glu216 it was 8.9 ± 0.1.
For “4-alpha-glucanotransferase (TmGTase) W131G (Thermotoga maritima; W131G)”, the pKa was 4.7 ± 0.1 and 4.5 ± 0.09 in the series with Asp186; 8.9 ± 0.1 in the series with Glu216.
